Source: article PMC6197697, “Rice transcription factor OsMADS25 modulates root growth and confers salinity tolerance via the ABA–mediated regulatory pathway and ROS scavenging”

Key:
His-OsMADS25 [1] = target: T1, His-OsMADS25 (Oryza sativa, UniProt Q84NC5 1-227); experiment: EMSA; 5 mM Mg2+; competition stated to confirm specificity; 10 mM Tris pH 7.5, 50 mM KCl, 1 mM DTT, 2.5% glycerol, 5 mM MgCl2, 0.05% NP-40, 50 ng/ul poly(dI-dC), 30 ng protein, 400 fmol probe in 20 ul, 25 C 20 min (final values calculated from stocks); conditions: protein: recombinant; tags: His (pET32a fusion); chain copies: 2; label: biotin 3' end; blunt
His-OsMADS25 [2] = target: T1, His-OsMADS25; experiment: EMSA; 5 mM Mg2+; 10 mM Tris pH 7.5, 50 mM KCl, 1 mM DTT, 2.5% glycerol, 5 mM MgCl2, 0.05% NP-40, 50 ng/ul poly(dI-dC), 30 ng protein, 400 fmol probe in 20 ul, 25 C 20 min (final values calculated from stocks); conditions: protein: recombinant; tags: His (pET32a fusion); chain copies: 2; label: biotin 3' end; blunt

T1 sequence (Q84NC5 whole entry, the tested form may be a part): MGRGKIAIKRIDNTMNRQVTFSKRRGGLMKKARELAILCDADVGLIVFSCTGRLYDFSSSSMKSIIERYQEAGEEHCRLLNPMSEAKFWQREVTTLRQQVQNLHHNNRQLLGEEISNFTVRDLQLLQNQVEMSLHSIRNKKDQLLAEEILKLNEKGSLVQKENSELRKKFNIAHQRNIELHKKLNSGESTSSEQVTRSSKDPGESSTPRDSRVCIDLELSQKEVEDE

B1: OsP5CR P2 probe (dsDNA)
DNA 1: CGACGAATCCATTCATATATTTGTAGGGGCAGCGG
DNA 2: CCGCTGCCCCTACAAATATATGAATGGATTCGTCG
B1: binds (His-OsMADS25 [1]).

B2: OsP5CR P1 probe (dsDNA)
DNA 1: CAGAGGGCATTCTCCCTAATAAGGCAGATACCTCCG
DNA 2: CGGAGGTATCTGCCTTATTAGGGAGAATGCCCTCTG
B2: no binding (His-OsMADS25 [2]).
